Test results taken from patent US12209122.

Target: the two scFvs (16-22-H05-sc02 and 16-22-H05-sc04)
Test: competition ELISA, coated scFv, biotinylated TNFα, unlabeled TNFβ against unlabeled TNFα

- selectivity for binding to TNFα over TNFβ (fold): > 20000 fold
B1: recombinant human TNFβ (Peprotech, Cat. No. 300-01B) (ligand, UniProt P01374 35-205, looked up)
chain: LPGVGLTPSAAQTARQHPKMHLAHSTLKPAAHLIGDPSKQNSLLWRANTDRAFLQDGFSLSNNSLLVPTSGIYFVYSQVVFSGKAYSPKATSSPLYLAHEVQLFSSQYPFHVPLLSSQKMVYPGLQEPWLHSMYHGAAFQLTQGDQLSTHTDGIPHLVLSPSTVFFGAFAL
